Self-cleavage data for 54 variants are collected here from the RNAGym collection of RNA variant scans (doi:10.7554/elife.80360).

The chains are these.
B1: Twister Ribozyme (parent)
chain: AACACUGCCAAUGCCGGUCCCAAGCCCGGAUAAAAGUGGAGGGGGCGG

The data set covers variants of B1. The data set can be described thus: self-cleavage, relative activity (ratio to wild type); higher = more cleavage; co-transcriptional.
As to AACACUGCCAAUGCCGGUCUCAAGCCCGGAUAAAAGUGGAGGGUGCGG [C20U G44U], the self-cleavage was 0.893.
For AACACUGCCAAUGCCGGACCCAAGCCCGGAUAAAAGUGGAGGGGGCCG [U18A G47C], the self-cleavage worked out at 0.164.
Regarding AACACUGCCAAUGCCGGUCCCAAGCCCGGAUAAAAGUGAAGGGUGCGG [G39A G44U], the self-cleavage turned out to be 0.322.
For the variant AACACUGCCAAUGCCGGUCCCAAGCCCCGAUAAAAGUGGAGGGGGAGG [G28C C46A], the self-cleavage is 0.684.
As to AACAUUGCCAAUGCCGGUCCCAAGCCCAGAUAAAAGUGGAGGGGGCGG [C5U G28A], the self-cleavage was determined as 0.572.
As to AGGACUGCCAAUGCCGGUCCCAAGCCCGGAUAAAAGUGGAGGGGGCGG [A2G C3G], the self-cleavage came out at 0.583.
Under AACACUGCCGAUGCCGGUCCCAAGCCCGGAUAUAAGUGGAGGGGGCGG [A10G A33U] stands 0.963.
Under AACACUGCCAAUGCCGGUCCCUAGCCCGGAUAAAAGUGGAGGGGGCUG [A22U G47U] stands 0.67; under AUCACUGCCAAUGCCGGUCCCAAGCCCGAAUAAAAGUGGAGGGGGCGG [A2U G29A], 0.474; under AACACUGGCAAUGCCGGUCCCAAGCCCGGAUAUAAGUGGAGGGGGCGG [C8G A33U], 0.279.
For the variant AACACUGCCAAUGCCCGUCCCAAGCCCGGAUAAAAGUGGAGGGGGCGA [G16C G48A], the self-cleavage worked out at 0.473.
For the variant AACACUGGCAAUGCCGGUCCCAAGCCCGGAUAAAAGUAGAGGGGGCGG [C8G G38A], the self-cleavage amounted to 0.325.
Consider AACACUGCCAAUGCCGGUCCCAAGCUCGGAUAAAAGUGGAGGGGUCGG [C26U G45U], for which the self-cleavage was determined as 0.145.
Regarding AACACUGCCAAUACCGGUCCCAAGCCAGGAUAAAAGUGGAGGGGGCGG [G13A C27A], the self-cleavage came to 0.0875.
Turning to AACACUGCCAAUGCCGGUCGCAAGCCCGGAUAAAAGUGGAGGGCGCGG [C20G G44C], the self-cleavage came out at 0.0871.
In the case of AACACAGCCAAUGCCGGUCCCAAGCCCGGAUAAAACUGGAGGGGGCGG [U6A G36C], the self-cleavage was found to be 0.136.
With AACACUGCCACUGCCGGUCCCAAGCCCGGAUAAAAGUGGAGGGGACGG [A11C G45A], the self-cleavage stood at 0.938.
Take ACCACUGCCAAUGCCGGUCCCAAGCCCGGAUAAAAGUGUAGGGGGCGG [A2C G39U]: the self-cleavage worked out at 0.0688.
The result for AACACUGCCAAUGCCGGUCCCAAGCCCGGACAAAAGUGGAGGGGGUGG [U31C C46U] reads 0.788; that for AACACUGCCAACGCCGGUCCCAAGCCUGGAUAAAAGUGGAGGGGGCGG [U12C C27U], 0.951.
As for AACACUGCCAAUGCCGAUCCCAAGCCCGGAUAAAACUGGAGGGGGCGG [G17A G36C], the self-cleavage was determined as 0.118.
AACACUGCCAAUGCCGGUCCCAAGCCCCUAUAAAAGUGGAGGGGGCGG [G28C G29U]: the self-cleavage was 0.98.
Regarding AACACUGCCAAUUCCGGUCCCAAGCCCGGAUAAGAGUGGAGGGGGCGG [G13U A34G], the self-cleavage was 0.211.
As for AACAUUGCCAAUGCCGGUCCCAAGCCCGGAUACAAGUGGAGGGGGCGG [C5U A33C], the self-cleavage was 0.652.
In the case of AACACUGCCAAUGCCGGUCCCUAGCCCGGAUAAAAGUGGAUGGGGCGG [A22U G41U], the self-cleavage stood at 0.137.
The result for AACACUUCCAAUGCCGGUCCCAAGCCCGGAUAAUAGUGGAGGGGGCGG [G7U A34U] reads 0.0892; that for AACACUGCCAAUGCCGGUCCCAAGCCCGGAUAAAAGUGCAGGGGUCGG [G39C G45U], 0.158.
Turning to AACACUGCCAAUGCCGGUCCCGAGCCCGGAUAAAAGUGGAGGGGGAGG [A22G C46A], the self-cleavage was found to be 0.227.
As for GACACUGCCAAUGCCGGUUCCAAGCCCGGAUAAAAGUGGAGGGGGCGG [A1G C19U], the self-cleavage was found to be 0.345.
For AACACUGCCAAUGCCGGUCCCGAGCCCGGAUAAAACUGGAGGGGGCGG [A22G G36C], the self-cleavage came out at 0.0743.
Under AACACUGCCAGUGCCGGUCCCAAGCCCGGAUAAAAGUGGAGGGGGCAG [A11G G47A] stands 0.812; under AACACUGCCAAUGCCGGUUCCAAGCCCGGAUAAAAGUGGAGGGUGCGG [C19U G44U], 0.86.
As to AACACUGCCAAUGCCGCUCCCAAGCCCGGAUAAAAGUGGAGAGGGCGG [G17C G42A], the self-cleavage worked out at 0.0674.
Turning to AACACUGCCAAUGCCGGUCCCAAUCCCGGAUAAAAGUGGAGGAGGCGG [G24U G43A], the self-cleavage is 0.0702.
As for AACACUGCCAAUGCCGGUCCCAAGCCCAGAUGAAAGUGGAGGGGGCGG [G28A A32G], the self-cleavage was 0.835.
Take UACACUGCCAAUGCCGGUCCCAUGCCCGGAUAAAAGUGGAGGGGGCGG [A1U A23U]: the self-cleavage came out at 0.0522.
Under UACACUGCCAAGGCCGGUCCCAAGCCCGGAUAAAAGUGGAGGGGGCGG [A1U U12G] stands 0.0921; under AACGCUGCCAAUGCCAGUCCCAAGCCCGGAUAAAAGUGGAGGGGGCGG [A4G G16A], 0.918.
Regarding AACACUGCCAAUGCCGGUCCCAAGCCCGGAUAAACCUGGAGGGGGCGG [A35C G36C], the self-cleavage came out at 0.382.
For AACACUGCCAAUUCCGGUCCCAAGCCCGGAUAAAAGUGGAGGGGGCGU [G13U G48U], the self-cleavage was 0.357.
As to AACACUGCCAAUGCCGGUCACAAGCCCGGAUAAAAAUGGAGGGGGCGG [C20A G36A], the self-cleavage was found to be 0.0747.
Under AACACUGCCAAUGACGGUCCCAAGCUCGGAUAAAAGUGGAGGGGGCGG [C14A C26U] stands 0.247; under AACACUGCCAAUGCCGGUCCCAAGCCCGGCUAAAAGUGGAGCGGGCGG [A30C G42C], 0.111; under AACACGGCCAAUGCCGGUCCCAGGCCCGGAUAAAAGUGGAGGGGGCGG [U6G A23G], 0.0873.
For AACACUGACAAUGCCGGUCCCAAGCCCGGAUAAAAGUGGGGGGGGCGG [C8A A40G], the self-cleavage is 0.17.
As to AACACUGCCAAUGCCGGUACCAAGCCCGGUUAAAAGUGGAGGGGGCGG [C19A A30U], the self-cleavage came to 0.349.
For the variant AACACUGCCUAUGCCGGUCCCAAGCCCGGAUAAAAGUGGAAGGGGCGG [A10U G41A], the self-cleavage turned out to be 0.626.
In the case of AACACUGCCAAUGCCGGUCGCAAACCCGGAUAAAAGUGGAGGGGGCGG [C20G G24A], the self-cleavage was 0.109.
Under AACACUGCCAAUGCCGGUCCCAACCCCGGAUAAAAGUAGAGGGGGCGG [G24C G38A] stands 0.106.
For AUCACUGGCAAUGCCGGUCCCAAGCCCGGAUAAAAGUGGAGGGGGCGG [A2U C8G], the self-cleavage is 0.0705.
On to AACACUGCCAAUGCCGGUCCCAAGCCCGGAUCACAGUGGAGGGGGCGG [A32C A34C], for which the self-cleavage was determined as 0.329.
On to AACACUGCCAAUGCCGGUCGCAAGCCCGGAUAAAAGUGGAGGGGGGGG [C20G C46G], for which the self-cleavage was 0.126.
Under AACACUGCCAAUCCCGGUCCAAAGCCCGGAUAAAAGUGGAGGGGGCGG [G13C C21A] stands 0.0599.
As for AACACUGCCAAUGCCGGUCCCAAGCCCCGAUAAAAGUGGACGGGGCGG [G28C G41C], the self-cleavage is 0.217.
